First the molecules themselves.
B1: V(D)J recombination-activating protein 2, residues 415 to 491; numbered along this chain, P55895 (parent)
chain: YWITCCPTCDVDINTWVPFYSTELNKPAMIYCSHGDGHWVHAQCMDLAERTLIHLSAGSNKYYCNEHVEIARALHTP

± gives the uncertainty stated by the source.

The data set covers variants of B1. Kind of data set: abundance fitness (aPCA) (normalised: wild type 0, dead -1); higher = more abundant; growth selection in yeast, the domain comes from the species named. Particulars: Homo sapiens.
Regarding YWITCCPTCDVDINTWVPFYSTELNVPAMIYCSHGDGHWVHAQCMDLAERTLIHLSAGSNKYYCNEHVEIARALHTP [K26V], the abundance fitness was -0.084 ± 0.23. As for YWITCCPTCDVDINTWVPFYSTELNAPAMIYCSHGDGHWVHAQCMDLAERTLIHLSAGSNKYYCNEHVEIARALHTP [K26A], the abundance fitness is -0.275 ± 0.3. Take YWITCCPTCDVDINTWVPFYSTELNQPAMIYCSHGDGHWVHAQCMDLAERTLIHLSAGSNKYYCNEHVEIARALHTP [K26Q]: the abundance fitness is -0.179 ± 0.19.

In the case of YWITCCPTCDVDINTWVPFYSTELNEPAMIYCSHGDGHWVHAQCMDLAERTLIHLSAGSNKYYCNEHVEIARALHTP [K26E], the abundance fitness is -0.129 ± 0.44. Regarding YWITCCPTCDVDINTWVPFYSTELNSPAMIYCSHGDGHWVHAQCMDLAERTLIHLSAGSNKYYCNEHVEIARALHTP [K26S], the abundance fitness was -0.174 ± 0.28. For YWITCCPTCDVDINTWVPFYSTELNNPAMIYCSHGDGHWVHAQCMDLAERTLIHLSAGSNKYYCNEHVEIARALHTP [K26N], the abundance fitness is -0.03 ± 0.17. For YWITCCPTCDVDINTWVPFYSTELNTPAMIYCSHGDGHWVHAQCMDLAERTLIHLSAGSNKYYCNEHVEIARALHTP [K26T], the abundance fitness is -0.074 ± 0.38. As for YWITCCPTCDVDINTWVPFYSTELNFPAMIYCSHGDGHWVHAQCMDLAERTLIHLSAGSNKYYCNEHVEIARALHTP [K26F], the abundance fitness is -0.116 ± 0.22. Consider YWITCCPTCDVDINTWVPFYSTELNRPAMIYCSHGDGHWVHAQCMDLAERTLIHLSAGSNKYYCNEHVEIARALHTP [K26R], for which the abundance fitness is -0.006 ± 0.12. For YWITCCPTCDVDINTWVPFYSTELNGPAMIYCSHGDGHWVHAQCMDLAERTLIHLSAGSNKYYCNEHVEIARALHTP [K26G], the abundance fitness is -0.17 ± 0.15. Turning to YWITCCPTCDVDINTWVPFYSTELNYPAMIYCSHGDGHWVHAQCMDLAERTLIHLSAGSNKYYCNEHVEIARALHTP [K26Y], the abundance fitness is -0.421 ± 0.43.

On to YWITCCPTCDVDINTWVPFYSTELNPPAMIYCSHGDGHWVHAQCMDLAERTLIHLSAGSNKYYCNEHVEIARALHTP [K26P], for which the abundance fitness is -0.786 ± 0.36. With YWITCCPTCDVDINTWVPFYSTELNMPAMIYCSHGDGHWVHAQCMDLAERTLIHLSAGSNKYYCNEHVEIARALHTP [K26M], the abundance fitness is -0.597 ± 0.35.

Turning to YWITCCPTCDVDINTWVPFYSTELNWPAMIYCSHGDGHWVHAQCMDLAERTLIHLSAGSNKYYCNEHVEIARALHTP [K26W], the abundance fitness turned out to be 0.023 ± 0.18. Regarding YWITCCPTCDVDINTWVPFYSTELNLPAMIYCSHGDGHWVHAQCMDLAERTLIHLSAGSNKYYCNEHVEIARALHTP [K26L], the abundance fitness was -0.063 ± 0.14. As to YWITCCPTCDVDINTWVPFYSTSLNKPAMIYCSHGDGHWVHAQCMDLAERTLIHLSAGSNKYYCNEHVEIARALHTP [E23S], the abundance fitness is -0.805 ± 0.23. With YWITCCPTCDVDINTWVPFYSTGLNKPAMIYCSHGDGHWVHAQCMDLAERTLIHLSAGSNKYYCNEHVEIARALHTP [E23G], the abundance fitness was -0.372 ± 0.17. Take YWITCCPTCDVDINTWVPFYSTRLNKPAMIYCSHGDGHWVHAQCMDLAERTLIHLSAGSNKYYCNEHVEIARALHTP [E23R]: the abundance fitness was -1.03 ± 0.24. Take YWITCCPTCDVDINTWVPFYSTFLNKPAMIYCSHGDGHWVHAQCMDLAERTLIHLSAGSNKYYCNEHVEIARALHTP [E23F]: the abundance fitness is -0.901 ± 0.34. Turning to YWITCCPTCDVDINTWVPFYSTCLNKPAMIYCSHGDGHWVHAQCMDLAERTLIHLSAGSNKYYCNEHVEIARALHTP [E23C], the abundance fitness was -0.851 ± 0.42. As for YWITCCPTCDVDINTWVPFYSTDLNKPAMIYCSHGDGHWVHAQCMDLAERTLIHLSAGSNKYYCNEHVEIARALHTP [E23D], the abundance fitness stood at 0.122 ± 0.17. For the variant YWITCCPTCDVDINTWVPFYSTKLNKPAMIYCSHGDGHWVHAQCMDLAERTLIHLSAGSNKYYCNEHVEIARALHTP [E23K], the abundance fitness was -0.54 ± 0.28. The same measure for YWITCCPTCDVDINTWVPFYSTHLNKPAMIYCSHGDGHWVHAQCMDLAERTLIHLSAGSNKYYCNEHVEIARALHTP [E23H]: -0.635 ± 0.31.

As to YWITCCPTCDVDINTWVPFYSTELNKAAMIYCSHGDGHWVHAQCMDLAERTLIHLSAGSNKYYCNEHVEIARALHTP [P27A], the abundance fitness was -0.776 ± 0.44. As for YWITCCPTCDVDINTWVPFYSTELNKCAMIYCSHGDGHWVHAQCMDLAERTLIHLSAGSNKYYCNEHVEIARALHTP [P27C], the abundance fitness is -0.938 ± 0.32. Regarding YWITCCPTCDVDINTWVPFYSTELNKDAMIYCSHGDGHWVHAQCMDLAERTLIHLSAGSNKYYCNEHVEIARALHTP [P27D], the abundance fitness is -1.01 ± 0.41. Take YWITCCPTCDVDINTWVPFYSTELCKPAMIYCSHGDGHWVHAQCMDLAERTLIHLSAGSNKYYCNEHVEIARALHTP [N25C]: the abundance fitness was -0.309 ± 0.15.

As to YWITCCPTCDVDINTWVPFYSTELYKPAMIYCSHGDGHWVHAQCMDLAERTLIHLSAGSNKYYCNEHVEIARALHTP [N25Y], the abundance fitness was -0.344 ± 0.36. The same measure for YWITCCPTCDVDINTWVPFYSTELGKPAMIYCSHGDGHWVHAQCMDLAERTLIHLSAGSNKYYCNEHVEIARALHTP [N25G]: 0.01 ± 0.11. The result for YWITCCPTCDVDINTWVPFYSTELVKPAMIYCSHGDGHWVHAQCMDLAERTLIHLSAGSNKYYCNEHVEIARALHTP [N25V] reads 0.065 ± 0.21; that for YWITCCPTCDVDINTWVPFYSTELAKPAMIYCSHGDGHWVHAQCMDLAERTLIHLSAGSNKYYCNEHVEIARALHTP [N25A], -0.124 ± 0.19. The result for YWITCCPTCDVDINTWVPFYSTELQKPAMIYCSHGDGHWVHAQCMDLAERTLIHLSAGSNKYYCNEHVEIARALHTP [N25Q] reads 0.132 ± 0.24. As for YWITCCPTCDVDINTWVPFYSTELRKPAMIYCSHGDGHWVHAQCMDLAERTLIHLSAGSNKYYCNEHVEIARALHTP [N25R], the abundance fitness is -0.052 ± 0.14. YWITCCPTCDVDINTWVPFYSTELEKPAMIYCSHGDGHWVHAQCMDLAERTLIHLSAGSNKYYCNEHVEIARALHTP [N25E]: the abundance fitness is 0.167 ± 0.17. As for YWITCCPTCDVDINTWVPFYSTELTKPAMIYCSHGDGHWVHAQCMDLAERTLIHLSAGSNKYYCNEHVEIARALHTP [N25T], the abundance fitness was -0.05 ± 0.17.
